Source: article PMC10579229 (Nature Communications, 2023)

Columns and labels:
[1] = target: the molecule itself; assay: crystal structure; P-domain and M4 mixed 1:1.5, complex peak from S200 gel filtration; crystals at 20 °C in 2% Tacsimate pH 4.0, 0.1 M sodium acetate pH 4.6, 16% PEG 3350; 2.87 Å
[2] = target: capsid protein VP1 of GII.4 Den Haag HuNoV (human norovirus GII.4 (Den Haag))
[3] = target: capsid protein VP1 of GII.4 New Orleans HuNoV (human norovirus GII.4 (New Orleans))

Binder	stoichiometry N [1]	IC50 of neutralisation of GII.4 Den Haag HuNoV (stool filtrate, 100 TCID50) in J4 FUT2 human intestinal enteroid monolayers; viral genome equivalents by RT-qPCR at 24 hpi [2] [µg/mL]	IC50 of neutralisation of GII.4 New Orleans HuNoV (stool filtrate, 100 TCID50) in J4 FUT2 human intestinal enteroid monolayers; viral genome equivalents by RT-qPCR at 24 hpi [3] [µg/mL]
GII.4 Sydney 2012 P-domain (protruding domain of the capsid protein VP1) (domain or fragment, biotin (EZ-Link NHC-LC-LC-biotin), in the BLI only, also called GII.4 P-domain; GII.4 Sydney P-domain; source: E. coli BL21(DE3), purified (His-Trap, TEV cleavage, His-Trap, MBPTrap, SEC); not shown: His6, N-terminal, cleaved; MBP, N-terminal, cleaved) ESRTKPFSVPVLTVEEMTNSRFPIPLEKLFTGPSSAFVVQPQNGRCTTDGVLLGTTQLSPVNICTFRGDVTHITGSRNYTMNLASQNWNDYDPTEEIPAPLGTPDFVGKIQGVLTQTTRTDGSTRGHKATVYTGSADFAPKLGRVQFETDTDRDFEANQNTKFTPVGVIQDGGTTHRNEPQQWVLPSYSGRNTHNVHLAPAVAPTFPGEQLLFFRSTMPGCSGYPNMDLDCLLPQEWVQYFYQEAAPAQSDVALLRFVNPDTGRVLFECKLHKSGYVTVAHTGQHDLVIPPNGYFRFDSWVNQFYTLAPMG	2	–	–
nanobody M4 (VHH) VHH: QVKLQQSGGGLVQPGGSLRLSCAASESTISINTLGWYRQAPGNQRELVATITTGGTTNYADSVKGRFTISRDNAKNTVYLQMNNLEPGDTAVYYCNLKRRDLQSRFGGYWGQGTQVTVSS	–	0.379	0.056
